The labels stand for the following.
B1: F1*; the commonest letter at each place (parent)
chain: GAGACCGCAACTGAAAAGTTGTTATCACTTGTCGTAAGACACTTTGGATGGGTTGAAGTTCTGCACGTAGAAGCAAAAGGC

This series covers variants of B1. Kind of series: fraction ligated after 30 min (ligated reads / total reads); higher = more ligase activity. The following applies: with F1*sub RNA substrate (template-directed ligation), 42 °C. The method in brief:
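Ligase ribozyme variants were made from oligo-pool templates by PCR amplification, T7 transcription and gel purification. After gel separation, ligated and unligated bands were reverse transcribed with barcoded primers and sequenced on a MiSeq, with core bases filtered at quality ≥20. The fraction ligated for each variant was the number of ligated reads divided by total reads.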
Consider GAGACCGCAACTGAAAAGTTGTTATCACTTGTCGTATGACACTTTGGATGGGTTGAAGTTCTGCACGTAGAAGCAAAAGGC [A37T], for which the fraction ligated was 0.853. With GAGACCGCAACTGAAAAGTTGTTATCACTTGTCGTAGCACACTTTGGATGGGTTGAAGTTCTGCACGTAGAAGCAAAAGGC [A37G G38C], the fraction ligated came out at 0.828. In the case of GAGACCGCAACTGAAAAGTTGTTATCACTTGTCGTAGTACACTTTGGATGGGTTGAAGTTCTGCACGTAGAAGCAAAAGGC [A37G G38T] it was 0.849; in that of GAGACCGCAACTGAAAAGTTGTTATCACTTGTCGTAGAACACTTTGGATGGGTTGAAGTTCTGCACGTAGAAGCAAAAGGC [A37G G38A], 0.882. With GAGACCGCAACTGAAAAGTTGTTATCACTTGTCGTAGGACACGTTGGATGGGTTGAAGTTCTGCACGTAGAAGCAAAAGGC [A37G T43G], the fraction ligated turned out to be 0.814.

In the case of GAGACCGCAACTGAAAAGTTGTTATCACTTGTCGTAGGACACATTGGATGGGTTGAAGTTCTGCACGTAGAAGCAAAAGGC [A37G T43A], the fraction ligated worked out at 0.867.

For the variant GAGACCGCAACTGAAAAGTTGTTATCACTTGTCGTAGGACACCTTGGATGGGTTGAAGTTCTGCACGTAGAAGCAAAAGGC [A37G T43C], the fraction ligated came out at 0.853. In the case of GAGACCGCAACTGAAAAGTTGTTATCACTTGTCGTATGACACTTTGGATGGGTTGCAGTTCTGCACGTAGAAGCAAAAGGC [A37T A56C] it was 0.786; in that of GAGACCGCAACTGAAAAGTTGTTATCACTTGTCGTATGACACTTTGGATGGGTTGTAGTTCTGCACGTAGAAGCAAAAGGC [A37T A56T], 0.83. As for GAGACCGCAACTGAAAAGTTGTTATCACTTGTCGTATGACACTTTGGATGGGTTGGAGTTCTGCACGTAGAAGCAAAAGGC [A37T A56G], the fraction ligated was 0.807. In the case of GAGACCGCAACTGAAAAGTTGTTATCACTTGTCGTAGGACACTTTGTATGGGTTGAAGTTCTGCACGTAGAAGCAAAAGGC [A37G G47T] it was 0.397. Consider GAGACCGCAACTGAAAAGTTGTTATCACTTGTCGTAGGACACTTTGCATGGGTTGAAGTTCTGCACGTAGAAGCAAAAGGC [A37G G47C], for which the fraction ligated worked out at 0.269. For GAGACCGCAACTGAAAAGTTGTTATCACTTGTCGTAGGACACTTTGAATGGGTTGAAGTTCTGCACGTAGAAGCAAAAGGC [A37G G47A] the value was 0.831. In the case of GAGACCGCAACTGAAAAGTTGTTATCACTTGTCGTAGGACACTTAGGATGGGTTGAAGTTCTGCACGTAGAAGCAAAAGGC [A37G T45A] it was 0.804; in that of GAGACCGCAACTGAAAAGTTGTTATCACTTGTCGTAGGACACTTGGGATGGGTTGAAGTTCTGCACGTAGAAGCAAAAGGC [A37G T45G], 0.407; in that of GAGACCGCAACTGAAAAGTTGTTATCACTTGTCGTAGGACACTTCGGATGGGTTGAAGTTCTGCACGTAGAAGCAAAAGGC [A37G T45C], 0.803. In the case of GAGACCGCAACTGAAAAGTTGTTATCACTTGTCGTATGACACTTTGGATGGGTTGATGTTCTGCACGTAGAAGCAAAAGGC [A37T A57T] it was 0.838; in that of GAGACCGCAACTGAAAAGTTGTTATCACTTGTCGTATGACACTTTGGATGGGTTGACGTTCTGCACGTAGAAGCAAAAGGC [A37T A57C], 0.854; in that of GAGACCGCAACTGAAAAGTTGTTATCACTTGTCGTATGACACTTTGGATGGGTTGAGGTTCTGCACGTAGAAGCAAAAGGC [A37T A57G], 0.842.

Consider GAGACCGCAACTGAAAAGTTGTTATCACTTGTCGTATGACAGTTTGGATGGGTTGAAGTTCTGCACGTAGAAGCAAAAGGC [A37T C42G], for which the fraction ligated worked out at 0.849.

As for GAGACCGCAACTGAAAAGTTGTTATCACTTGTCGTATGACAATTTGGATGGGTTGAAGTTCTGCACGTAGAAGCAAAAGGC [A37T C42A], the fraction ligated was 0.85.

On to GAGACCGCAACTGAAAAGTTGTTATCACTTGTCGTATGACATTTTGGATGGGTTGAAGTTCTGCACGTAGAAGCAAAAGGC [A37T C42T], for which the fraction ligated is 0.858. In the case of GAGACCGCAACTGAAAAGTTGTTATCACTTGTCGTAGGACACTTTGGATTGGTTGAAGTTCTGCACGTAGAAGCAAAAGGC [A37G G50T] it was 0.785; in that of GAGACCGCAACTGAAAAGTTGTTATCACTTGTCGTAGGACACTTTGGATAGGTTGAAGTTCTGCACGTAGAAGCAAAAGGC [A37G G50A], 0.659. For GAGACCGCAACTGAAAAGTTGTTATCACTTGTCGTAGGACACTTTGGATCGGTTGAAGTTCTGCACGTAGAAGCAAAAGGC [A37G G50C] the value was 0.45. With GAGACCGCAACTGAAAAGTTGTTATCACTTGTCGTATGACACTTTCGATGGGTTGAAGTTCTGCACGTAGAAGCAAAAGGC [A37T G46C], the fraction ligated stood at 0.8. On to GAGACCGCAACTGAAAAGTTGTTATCACTTGTCGTATGACACTTTAGATGGGTTGAAGTTCTGCACGTAGAAGCAAAAGGC [A37T G46A], for which the fraction ligated was found to be 0.807.

GAGACCGCAACTGAAAAGTTGTTATCACTTGTCGTATGACACTTTTGATGGGTTGAAGTTCTGCACGTAGAAGCAAAAGGC [A37T G46T]: the fraction ligated amounted to 0.784. In the case of GAGACCGCAACTGAAAAGTTGTTATCACTTGTCGTAGGACACTTTGGACGGGTTGAAGTTCTGCACGTAGAAGCAAAAGGC [A37G T49C] it was 0.744.

With GAGACCGCAACTGAAAAGTTGTTATCACTTGTCGTAGGACACTTTGGAAGGGTTGAAGTTCTGCACGTAGAAGCAAAAGGC [A37G T49A], the fraction ligated came out at 0.796. For GAGACCGCAACTGAAAAGTTGTTATCACTTGTCGTAGGACACTTTGGAGGGGTTGAAGTTCTGCACGTAGAAGCAAAAGGC [A37G T49G] the value was 0.807; for GAGACCGCAACTGAAAAGTTGTTATCACTTGTCGTAGGACACTTTAGATGGGTTGAAGTTCTGCACGTAGAAGCAAAAGGC [A37G G46A], 0.818. For GAGACCGCAACTGAAAAGTTGTTATCACTTGTCGTAGGACACTTTTGATGGGTTGAAGTTCTGCACGTAGAAGCAAAAGGC [A37G G46T] the value was 0.806; for GAGACCGCAACTGAAAAGTTGTTATCACTTGTCGTAGGACACTTTCGATGGGTTGAAGTTCTGCACGTAGAAGCAAAAGGC [A37G G46C], 0.81.
